Test results taken from article PMC4663267, “A Novel C-Terminal Domain of RecJ is Critical for Interaction with HerA in Deinococcus radiodurans”.

Tests used:
DrRecJ;DrHerA = target: T1, DrRecJ;DrHerA (Deinococcus radiodurans;Deinococcus …, UniProt D0EM60;Q9RW32 1-705;1-618, |); assay: EMSA; HerA hexamer:RecJ 8:1; super-shift, RecJ binding enhanced; EMSA: 100 nM DNA, 80 mM NaCl, 20 mM Tris-HCl pH 7.5, 1 mM DTT, 30 C, 10 min, 5% TBE native PAGE; conditions: protein: recombinant;recombinant; tags: HMT (His6-MBP) tag removed by TEV;N-terminal His6; copies: 1;6; label: 5' FAM; single strand
T1 sequence 1: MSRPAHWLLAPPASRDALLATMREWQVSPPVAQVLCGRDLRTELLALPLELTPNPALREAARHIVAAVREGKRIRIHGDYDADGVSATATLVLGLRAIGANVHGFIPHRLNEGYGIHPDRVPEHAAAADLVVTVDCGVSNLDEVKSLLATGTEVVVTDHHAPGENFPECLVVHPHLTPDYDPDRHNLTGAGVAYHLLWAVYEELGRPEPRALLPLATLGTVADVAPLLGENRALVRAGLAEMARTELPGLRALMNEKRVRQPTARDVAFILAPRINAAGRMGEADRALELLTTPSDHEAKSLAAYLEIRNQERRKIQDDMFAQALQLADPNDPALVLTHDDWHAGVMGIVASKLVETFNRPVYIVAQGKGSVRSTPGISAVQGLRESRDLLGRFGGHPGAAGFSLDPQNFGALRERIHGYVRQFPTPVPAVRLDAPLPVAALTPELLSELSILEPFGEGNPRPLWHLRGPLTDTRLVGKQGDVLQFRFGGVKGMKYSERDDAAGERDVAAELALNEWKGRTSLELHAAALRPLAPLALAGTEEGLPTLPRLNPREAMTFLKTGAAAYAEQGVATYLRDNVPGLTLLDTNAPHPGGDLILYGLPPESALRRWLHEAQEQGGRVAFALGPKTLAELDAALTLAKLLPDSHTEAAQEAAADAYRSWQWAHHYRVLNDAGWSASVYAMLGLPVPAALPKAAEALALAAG
T1 sequence 2: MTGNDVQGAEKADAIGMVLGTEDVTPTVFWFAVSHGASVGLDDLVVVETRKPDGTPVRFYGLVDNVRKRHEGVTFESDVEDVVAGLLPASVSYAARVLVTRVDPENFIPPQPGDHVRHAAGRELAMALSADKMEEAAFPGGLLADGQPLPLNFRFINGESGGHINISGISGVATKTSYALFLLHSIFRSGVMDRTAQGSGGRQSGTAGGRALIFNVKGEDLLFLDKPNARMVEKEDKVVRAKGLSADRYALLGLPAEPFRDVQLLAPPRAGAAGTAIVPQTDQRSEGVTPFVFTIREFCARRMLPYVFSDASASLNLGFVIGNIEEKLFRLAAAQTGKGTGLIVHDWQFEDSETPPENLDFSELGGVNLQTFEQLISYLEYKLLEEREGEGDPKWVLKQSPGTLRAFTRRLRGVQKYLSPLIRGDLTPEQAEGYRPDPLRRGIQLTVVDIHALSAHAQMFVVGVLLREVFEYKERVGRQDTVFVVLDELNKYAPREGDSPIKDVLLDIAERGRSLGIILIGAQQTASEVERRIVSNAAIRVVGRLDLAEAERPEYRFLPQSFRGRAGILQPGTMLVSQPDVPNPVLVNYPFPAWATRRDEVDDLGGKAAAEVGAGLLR

DrRecJ;DrHerAΔN = target: T2, DrRecJ;DrHerAΔN (Deinococcus radiodurans;Deinococcus …, UniProt D0EM60;Q9RW32 1-705;136-618, |); assay: EMSA; with 4 uM DrNurA (dimer, P6), 800 nM HerAΔN hexamer; stimulation not decreased; EMSA: 100 nM DNA, 80 mM NaCl, 20 mM Tris-HCl pH 7.5, 1 mM DTT, 30 C, 10 min, 5% TBE native PAGE; conditions: protein: recombinant;recombinant; tags: HMT (His6-MBP) tag removed by TEV;N-terminal His6; copies: 1;6; label: 5' FAM; single strand
T2 sequence 1: T1 sequence 1
T2 sequence 2: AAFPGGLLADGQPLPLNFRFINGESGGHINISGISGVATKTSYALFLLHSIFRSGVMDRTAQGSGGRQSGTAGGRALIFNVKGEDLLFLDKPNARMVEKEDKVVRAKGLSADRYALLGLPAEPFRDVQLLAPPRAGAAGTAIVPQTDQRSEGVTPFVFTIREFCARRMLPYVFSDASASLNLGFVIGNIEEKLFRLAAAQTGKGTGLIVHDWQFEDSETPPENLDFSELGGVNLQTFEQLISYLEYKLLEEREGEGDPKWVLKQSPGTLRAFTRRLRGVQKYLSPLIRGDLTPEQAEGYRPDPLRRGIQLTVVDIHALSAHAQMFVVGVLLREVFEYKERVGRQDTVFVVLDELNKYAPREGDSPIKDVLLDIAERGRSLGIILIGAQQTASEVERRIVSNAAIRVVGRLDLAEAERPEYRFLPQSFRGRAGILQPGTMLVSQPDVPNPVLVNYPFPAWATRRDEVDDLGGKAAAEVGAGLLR

AAAAAAAAAA (ssDNA) [O1 (10 nt ssDNA)]
binding result (DrRecJ;DrHerA): binds
binding result (DrRecJ;DrHerAΔN): binds
